According to US20140087995A1 (published 2014):
Numbered stars: 1 amine (or outer) side, 2 acyl side, 3 side chain; on linkers, the order of the positions; unused ones are H or OH. Bridge positions count the residues as written; N and C are the ends. Side chains are listed from the residue outwards. Ends that are not written are not given here. * marks the point of attachment. C20 diacid = O=C(O)CCCCCCCCCCCCCCCCCCC(=O)*; γGlu = O=C(O)[C@H](CCC(=O)[*:2])N[*:1]; AEEA = NCCOCCOCC(=O)O

T1: human calcitonin receptor (human, UniProt P30988 25-474)
T1 construct: whole, on cells; Used as membranes prepared from the transfected cells (Assay VII); also called hCTR; hCT
T1 sequence (looked up): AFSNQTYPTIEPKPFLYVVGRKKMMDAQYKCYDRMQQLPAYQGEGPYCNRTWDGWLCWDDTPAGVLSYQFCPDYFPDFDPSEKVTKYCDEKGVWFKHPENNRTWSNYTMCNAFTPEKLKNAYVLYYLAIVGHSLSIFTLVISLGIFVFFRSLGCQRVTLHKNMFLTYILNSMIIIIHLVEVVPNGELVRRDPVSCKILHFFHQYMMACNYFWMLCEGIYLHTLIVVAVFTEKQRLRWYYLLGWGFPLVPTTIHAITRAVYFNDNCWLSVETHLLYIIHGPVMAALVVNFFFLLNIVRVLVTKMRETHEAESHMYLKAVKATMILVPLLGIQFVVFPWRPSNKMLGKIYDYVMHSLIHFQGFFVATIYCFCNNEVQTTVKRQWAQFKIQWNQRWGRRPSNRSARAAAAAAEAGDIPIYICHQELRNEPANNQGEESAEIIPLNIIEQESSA

T2: rat amylin receptor (rat calcitonin receptor + rat RAMP 3) (rat, UniProt P32214 25-516; Q9JJ73 23-147)
T2 construct: whole, on cells; Used as membranes prepared from the transfected cells; also called rAmylin-R; rat amylin 3(a) receptor
T2 sequence (looked up) 1: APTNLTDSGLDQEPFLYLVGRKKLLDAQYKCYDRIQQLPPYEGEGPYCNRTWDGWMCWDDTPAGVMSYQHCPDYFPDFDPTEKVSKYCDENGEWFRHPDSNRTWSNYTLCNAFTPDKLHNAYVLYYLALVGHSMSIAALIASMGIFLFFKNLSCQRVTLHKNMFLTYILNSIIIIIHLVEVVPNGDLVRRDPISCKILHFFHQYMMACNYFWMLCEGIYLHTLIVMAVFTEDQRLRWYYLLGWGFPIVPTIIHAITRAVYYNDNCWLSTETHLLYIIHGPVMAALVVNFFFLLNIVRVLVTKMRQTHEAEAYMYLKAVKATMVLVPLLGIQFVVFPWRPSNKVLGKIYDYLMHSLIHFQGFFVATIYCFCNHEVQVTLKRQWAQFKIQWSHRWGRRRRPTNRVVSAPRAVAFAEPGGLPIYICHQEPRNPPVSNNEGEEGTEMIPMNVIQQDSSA
T2 sequence (looked up) 2: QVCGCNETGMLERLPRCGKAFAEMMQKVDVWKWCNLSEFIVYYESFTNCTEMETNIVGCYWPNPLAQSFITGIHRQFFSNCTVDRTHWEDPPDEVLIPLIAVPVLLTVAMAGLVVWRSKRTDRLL

T3: rat calcitonin receptor (rat, UniProt P32214 25-516)
T3 construct: whole, on cells; Used as membranes prepared from the transfected cells; also called rCTR; rat calcitonin (a) receptor
T3 sequence (looked up): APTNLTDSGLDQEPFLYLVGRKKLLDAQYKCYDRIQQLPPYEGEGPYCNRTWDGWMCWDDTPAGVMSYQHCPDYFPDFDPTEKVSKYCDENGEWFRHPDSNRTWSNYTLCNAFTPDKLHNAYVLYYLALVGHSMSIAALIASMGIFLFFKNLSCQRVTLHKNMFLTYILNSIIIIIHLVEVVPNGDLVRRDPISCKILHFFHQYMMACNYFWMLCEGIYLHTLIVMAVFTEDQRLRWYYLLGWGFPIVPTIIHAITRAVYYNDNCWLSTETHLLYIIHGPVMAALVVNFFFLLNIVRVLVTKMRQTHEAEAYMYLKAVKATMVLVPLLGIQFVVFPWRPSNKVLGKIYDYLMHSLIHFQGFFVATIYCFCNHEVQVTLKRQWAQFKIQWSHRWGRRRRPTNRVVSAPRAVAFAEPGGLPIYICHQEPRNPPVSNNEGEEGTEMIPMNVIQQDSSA


Columns and labels:
[1] = molecular target: T1, human calcitonin receptor; assay: ratio IC50 human calcitonin receptor / IC50 human amylin receptor (Assays VII and V)
Method in brief: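 Scintillation proximity competition binding on cell membranes at 35 ng/μL with SPA beads, in 50 mM Hepes pH 7.4, 1 mM CaCl2, 5 mM MgCl₂, 0.1% OA, 0.02% Tween20. Incubated 120 min at 25° C with shaking. IC₅₀ from one-site competition fit.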

[2] = molecular target: T2, rat amylin receptor (rat calcitonin …); assay: SPA competition with 125I-rat amylin, membranes of BHK cells with rat calcitonin receptor + rat RAMP3 (Assay VI)
[3] = molecular target: T3, rat calcitonin receptor; assay: ratio IC50 rat calcitonin receptor / IC50 rat amylin receptor (Assays VIII and VI)
[4] = molecular target: T3, rat calcitonin receptor; assay: SPA competition with 125I-calcitonin, membranes of BHK cells with rat calcitonin receptor (Assay VIII)

Binder | Ratio hCT/hAmylin binding [1] | IC50 [2] [µM] | Ratio rCT/rAmylin binding [3] | IC50 [4] [µM]
K([AEEA-γGlu-C20 diacid])CNTATCATQRLANFLRHSSPNFGAIPSSTNVGSETY-NH2 (disulfide 2-7; N-terminus assumed; SMILES CC[C@H](C)[C@H](NC(=O)[C@H](C)NC(=O)CNC(=O)[C@H](Cc1ccccc1)NC(=O)[C@H](CC(N)=O)NC(=O)[C@@H]1CCCN1C(=O)[C@H](CO)NC(=O)[C@H](CO)NC(=O)[C@H](Cc1c[nH]cn1)NC(=O)[C@H](CCCNC(=N)N)NC(=O)[C@H](CC(C)C)NC(=O)[C@H](Cc1ccccc1)NC(=O)[C@H](CC(N)=O)NC(=O)[C@H](C)NC(=O)[C@H](CC(C)C)NC(=O)[C@H](CCCNC(=N)N)NC(=O)[C@H](CCC(N)=O)NC(=O)[C@@H](NC(=O)[C@H](C)NC(=O)[C@@H]1CSSC[C@H](NC(=O)[C@@H](N)CCCCNC(=O)COCCOCCNC(=O)CC[C@H](NC(=O)CCCCCCCCCCCCCCCCCCC(=O)O)C(=O)O)C(=O)N[C@@H](CC(N)=O)C(=O)N[C@@H]([C@@H](C)O)C(=O)N[C@@H](C)C(=O)N[C@@H]([C@@H](C)O)C(=O)N1)[C@@H](C)O)C(=O)N1CCC[C@H]1C(=O)N[C@@H](CO)C(=O)N[C@@H](CO)C(=O)N[C@H](C(=O)N[C@@H](CC(N)=O)C(=O)N[C@H](C(=O)NCC(=O)N[C@@H](CO)C(=O)N[C@@H](CCC(=O)O)C(=O)N[C@H](C(=O)N[C@@H](Cc1ccc(O)cc1)C(N)=O)[C@@H](C)O)C(C)C)[C@@H](C)O, Derivative of human amylin; also called compound 26) | 47.5 | 0.000491 | 309 | 0.152
K([AEEA-γGlu-C20 diacid])CNTATCATQRLANFLRHSSPNFGAIPSSTNVGSNTY-NH2 (disulfide 2-7; N-terminus assumed; SMILES CC[C@H](C)[C@H](NC(=O)[C@H](C)NC(=O)CNC(=O)[C@H](Cc1ccccc1)NC(=O)[C@H](CC(N)=O)NC(=O)[C@@H]1CCCN1C(=O)[C@H](CO)NC(=O)[C@H](CO)NC(=O)[C@H](Cc1c[nH]cn1)NC(=O)[C@H](CCCNC(=N)N)NC(=O)[C@H](CC(C)C)NC(=O)[C@H](Cc1ccccc1)NC(=O)[C@H](CC(N)=O)NC(=O)[C@H](C)NC(=O)[C@H](CC(C)C)NC(=O)[C@H](CCCNC(=N)N)NC(=O)[C@H](CCC(N)=O)NC(=O)[C@@H](NC(=O)[C@H](C)NC(=O)[C@@H]1CSSC[C@H](NC(=O)[C@@H](N)CCCCNC(=O)COCCOCCNC(=O)CC[C@H](NC(=O)CCCCCCCCCCCCCCCCCCC(=O)O)C(=O)O)C(=O)N[C@@H](CC(N)=O)C(=O)N[C@@H]([C@@H](C)O)C(=O)N[C@@H](C)C(=O)N[C@@H]([C@@H](C)O)C(=O)N1)[C@@H](C)O)C(=O)N1CCC[C@H]1C(=O)N[C@@H](CO)C(=O)N[C@@H](CO)C(=O)N[C@H](C(=O)N[C@@H](CC(N)=O)C(=O)N[C@H](C(=O)NCC(=O)N[C@@H](CO)C(=O)N[C@@H](CC(N)=O)C(=O)N[C@H](C(=O)N[C@@H](Cc1ccc(O)cc1)C(N)=O)[C@@H](C)O)C(C)C)[C@@H](C)O, Derivative of human amylin; also called compound 41) | 49.9 | 0.00137 | 54 | 0.0741
K([γGlu-C20 diacid])CNTATCATQRLANFLRHSSPNFGAIPSSTNVGSKTY-NH2 (disulfide 2-7; N-terminus assumed; SMILES CC[C@H](C)[C@H](NC(=O)[C@H](C)NC(=O)CNC(=O)[C@H](Cc1ccccc1)NC(=O)[C@H](CC(N)=O)NC(=O)[C@@H]1CCCN1C(=O)[C@H](CO)NC(=O)[C@H](CO)NC(=O)[C@H](Cc1c[nH]cn1)NC(=O)[C@H](CCCNC(=N)N)NC(=O)[C@H](CC(C)C)NC(=O)[C@H](Cc1ccccc1)NC(=O)[C@H](CC(N)=O)NC(=O)[C@H](C)NC(=O)[C@H](CC(C)C)NC(=O)[C@H](CCCNC(=N)N)NC(=O)[C@H](CCC(N)=O)NC(=O)[C@@H](NC(=O)[C@H](C)NC(=O)[C@@H]1CSSC[C@H](NC(=O)[C@@H](N)CCCCNC(=O)CC[C@H](NC(=O)CCCCCCCCCCCCCCCCCCC(=O)O)C(=O)O)C(=O)N[C@@H](CC(N)=O)C(=O)N[C@@H]([C@@H](C)O)C(=O)N[C@@H](C)C(=O)N[C@@H]([C@@H](C)O)C(=O)N1)[C@@H](C)O)C(=O)N1CCC[C@H]1C(=O)N[C@@H](CO)C(=O)N[C@@H](CO)C(=O)N[C@H](C(=O)N[C@@H](CC(N)=O)C(=O)N[C@H](C(=O)NCC(=O)N[C@@H](CO)C(=O)N[C@@H](CCCCN)C(=O)N[C@H](C(=O)N[C@@H](Cc1ccc(O)cc1)C(N)=O)[C@@H](C)O)C(C)C)[C@@H](C)O, Derivative of human amylin; also called compound 35) [N^ε1-[(4S)-4-carboxy-4-(19-carboxynonadecanoylamino)butanoyl]-[Arg17,Pro21,Pro27,Lys35]-h-amylin] | 50.3 | 0.000948 | 65.1 | 0.0617
K([γGlu-γGlu-C20 diacid])CNTATCATQRLADFLRHSSPNFGAPLSSTNVGSDTY-NH2 (disulfide 2-7; N-terminus assumed; SMILES CC(C)C[C@H](NC(=O)[C@H](CCCNC(=N)N)NC(=O)[C@H](CCC(N)=O)NC(=O)[C@@H](NC(=O)[C@H](C)NC(=O)[C@@H]1CSSC[C@H](NC(=O)[C@@H](N)CCCCNC(=O)CC[C@H](NC(=O)CC[C@H](NC(=O)CCCCCCCCCCCCCCCCCCC(=O)O)C(=O)O)C(=O)O)C(=O)N[C@@H](CC(N)=O)C(=O)N[C@@H]([C@@H](C)O)C(=O)N[C@@H](C)C(=O)N[C@@H]([C@@H](C)O)C(=O)N1)[C@@H](C)O)C(=O)N[C@@H](C)C(=O)N[C@@H](CC(=O)O)C(=O)N[C@@H](Cc1ccccc1)C(=O)N[C@@H](CC(C)C)C(=O)N[C@@H](CCCNC(=N)N)C(=O)N[C@@H](Cc1c[nH]cn1)C(=O)N[C@@H](CO)C(=O)N[C@@H](CO)C(=O)N1CCC[C@H]1C(=O)N[C@@H](CC(N)=O)C(=O)N[C@@H](Cc1ccccc1)C(=O)NCC(=O)N[C@@H](C)C(=O)N1CCC[C@H]1C(=O)N[C@@H](CC(C)C)C(=O)N[C@@H](CO)C(=O)N[C@@H](CO)C(=O)N[C@H](C(=O)N[C@@H](CC(N)=O)C(=O)N[C@H](C(=O)NCC(=O)N[C@@H](CO)C(=O)N[C@@H](CC(=O)O)C(=O)N[C@H](C(=O)N[C@@H](Cc1ccc(O)cc1)C(N)=O)[C@@H](C)O)C(C)C)[C@@H](C)O, Derivative of human amylin; also called compound 1) | 27.6 | 0.0013 | 104 | 0.135
K([γGlu-C20 diacid])CNTATCATQRLANFLRHSSPNFGAIPSSTNVGSETY-NH2 (disulfide 2-7; N-terminus assumed; SMILES CC[C@H](C)[C@H](NC(=O)[C@H](C)NC(=O)CNC(=O)[C@H](Cc1ccccc1)NC(=O)[C@H](CC(N)=O)NC(=O)[C@@H]1CCCN1C(=O)[C@H](CO)NC(=O)[C@H](CO)NC(=O)[C@H](Cc1c[nH]cn1)NC(=O)[C@H](CCCNC(=N)N)NC(=O)[C@H](CC(C)C)NC(=O)[C@H](Cc1ccccc1)NC(=O)[C@H](CC(N)=O)NC(=O)[C@H](C)NC(=O)[C@H](CC(C)C)NC(=O)[C@H](CCCNC(=N)N)NC(=O)[C@H](CCC(N)=O)NC(=O)[C@@H](NC(=O)[C@H](C)NC(=O)[C@@H]1CSSC[C@H](NC(=O)[C@@H](N)CCCCNC(=O)CC[C@H](NC(=O)CCCCCCCCCCCCCCCCCCC(=O)O)C(=O)O)C(=O)N[C@@H](CC(N)=O)C(=O)N[C@@H]([C@@H](C)O)C(=O)N[C@@H](C)C(=O)N[C@@H]([C@@H](C)O)C(=O)N1)[C@@H](C)O)C(=O)N1CCC[C@H]1C(=O)N[C@@H](CO)C(=O)N[C@@H](CO)C(=O)N[C@H](C(=O)N[C@@H](CC(N)=O)C(=O)N[C@H](C(=O)NCC(=O)N[C@@H](CO)C(=O)N[C@@H](CCC(=O)O)C(=O)N[C@H](C(=O)N[C@@H](Cc1ccc(O)cc1)C(N)=O)[C@@H](C)O)C(C)C)[C@@H](C)O, Derivative of human amylin; also called compound 27) [N^ε1-[(4S)-4-carboxy-4-(19-carboxynonadecanoylamino)butanoyl]-[Arg17,Pro21,Pro27,Glu35]-h-amylin] | 41.3 | 0.000614 | 147 | 0.0902
